Laboratory results as given in article PMC12377726 (Proceedings of the National Academy of Sciences of the …, 2025).
Changes are numbered by the printed parent chain.

B1: G001_gp1_V08_VRC01c_153 (antibody, V domains shown)
VH: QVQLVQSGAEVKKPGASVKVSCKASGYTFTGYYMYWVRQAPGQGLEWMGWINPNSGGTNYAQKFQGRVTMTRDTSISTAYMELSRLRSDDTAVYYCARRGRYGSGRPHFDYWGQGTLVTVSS
VL: DIQMTQSPSSLSASVGDRVTITCQATQDISNYLNWYQHKPGKAPKLLIYDASTLVTGVPSRFSGSGYGTDFTFTISSLQPEDIATYYCQEYLLFGGGTKVEIK
B2: G001_gp1_V08_VRC01c_142 (antibody, V domains shown)
VH: QVQLVQSGAEVKKPGASVKVSCKASGYTFTGDYMHWVRQAPGQGLEWMGWINPNSGGTNYAQKFQGWVTMTRDTSISTAYMEVRLRSDDTAVYYCARAGYSSSWGFGFWGQGTLVTVSS
VL: QSVLTQPPSVSGAPGERVTISCTGSSSNIGAGYDVHWYQQLPGTAPKLLIFGTSNRPSGVPDRFSGSKSGTSASLAITGLQAEDEADYYCQSYEFFGGGTKLTVL
B3: G001_gp1_V08_VRC01c_149 (antibody, V domains shown)
VH: QVQLVQSGAEVKKPGASVKVSCKTSGYTFTDYYMHWVRQAPGQGLEWMGWINPNSGGTNYAQKFQGRVTMTRDTSIRTVYMELSWLRSDDTAVFYCARHYRSSGWDFDYWGQGTLVTVSS
VL: DIVLTQSPDSLTVSLGERATINCKSSPSGLYSSNNKNYLTWYQQKPGQPPKLLIYWASTRESGVPDRFSGSGSGTDFTLTISSLQAEDVAVYYCQQYETFGGGTKVEIK
B4: G001_gp1_V08_VRC01c_123 (antibody, V domains shown)
VH: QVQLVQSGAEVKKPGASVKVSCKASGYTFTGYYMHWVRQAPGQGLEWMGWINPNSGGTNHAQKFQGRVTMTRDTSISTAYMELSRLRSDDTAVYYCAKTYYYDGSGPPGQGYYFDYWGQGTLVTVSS
VL: EIVMTQSPATLSVSPGERATLSCRANQSVSSNLAWYQQKPGQAPRLLIYGASTRATGIPARFSGSGSGTEFTLTISSLQSEDFAVYYCQQYNSFGQGTKLEIK
B5: G001_gp1_V08_VRC01c_136 (antibody, V domains shown)
VH: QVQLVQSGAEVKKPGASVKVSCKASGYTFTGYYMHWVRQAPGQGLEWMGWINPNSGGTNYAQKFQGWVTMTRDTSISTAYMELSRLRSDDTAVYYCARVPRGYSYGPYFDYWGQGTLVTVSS
VL: B4 VL with N26S, N92S, S93T, Q96G, L100V
B6: G001_gp1_V08_VRC01c_151 (antibody, V domains shown)
VH: QVQLVQSGAEVKKPGASVKVSCKASGYTFTDYYMHWVRQTPGQGLEWMGWMNPKSGGTNYALQFQGRVTMTRDTSISTAYMELSRLRSDDTAIYYCATKAYTNRAFDIWGQGTMVTVSS
VL: EIVLTQSPGTLSLSPGERATLSCRASQSVNSNSLAWYQQKPGQAPRLLIFAAYTRATGIPDRFSGSGSGTDFTLTISRLEPEDFAVYYCQQYDTFGQGTKVEIK
B7: G001_gp1_V08_VRC01c_138 (antibody, V domains shown)
VH: QVQLVQSGAEVKKPGASVKVSCKASGYTFTDYYMYWVRQAPGQGLEWMGWINPNSGGTNYAQKFQGRVTMTRDTSISTAYMELSGLRSDDTAVYYCARRPNPYSGYDSNAFDIWGQGTMVTVSS
VL: DIQMTQSPSTLSASVGDRVTITCRASQSISSWLAWYQQKPGKAPKLLIYKASSLESGVPSRFSGSGSGTEFTLTISSLQPDDSATYYCQQYETFGQGTKVEIK
B8: G001_gp1_V08_VRC01c_140 (antibody, V domains shown)
VH: QVQLVQSGAEVKMPGTSVKVSCKASGYTFTDYYMHWVRQAPGQGLEWMGWINPNSGGTNYEQRFQGRVTMTRDTSISTAYMDLRRLRSDDTAVYYCATSLVETSTHWAFDLWGQGTMVTVSS
VL: B7 VL with I2F, A25T, I29F, S31T, K50E, E55Q, S83L, E101A
B9: G001_gp1_V08_VRC01c_141 (antibody, V domains shown)
VH: QVQLVQSGAEVKKPGASVKVSCKASGYSFTDYYMHWVRQAPGQGLEWMGWINPNSGGSNYAQKFQGRVTMTRDSFISTAYMELSRLRSDDTAVYYCAYYDSGTYRYWGQGTLVTVSS
VL: B7 VL with Y36F, S83F
B10: G001_gp1_V08_VRC01c_146 (antibody, V domains shown)
VH: B7 VH with S77T, L83V, S84R, G85R, V93M, S108F
VL: B7 VL with S31N, A51T, S53N, S56G, S83L, T93M
B11: G001_gp1_V08_VRC01c_143 (antibody, V domains shown)
VH: QVQLVQSGAEVRKPGASVKVSCKASGFTFSDYYIHWVRQAPGQGLEWMGWINPNSGGTNYARKFQGRVTMTRDRSISTAYMELSRLRSDDTAVYYCARGLHTSGWYFAFWGQGTLVTVSS
VL: DIQMTQSPSSLSASVGDRVTITCQARQDTSNYLHWYQQKPGKAPKLLIYDASKLEPGVPSRFSGSGSGTDFTFTISNLQPEDIGTYYCQQYEAFGGGTKVEIK
B12: G001_gp1_V08_VRC01c_128 (antibody, V domains shown)
VH: QVQLVQSGAEVKKPGASVKVSCKASGYTFIDYYMHWVRQAPGQGLEWMGWINPNSGGTNYAQQFQGWVTMTRDTSISTAYMELSRLRSDDTAVYYCATSIVAAGSYWYFDLWGRGTLVTVSS
VL: EIVLTQSPGTLSLSPGERATLSCRASQSVTSSYLAWYQKKPGQAPRLLIYGASSRATGIPDRFSGSGSGTDFTLTISRLEPEDFAVYYCQQYEFFGQGTKLEIK
B13: G001_gp1_V08_VRC01c_139 (antibody, V domains shown)
VH: QVQLVQSGAEVKKPGASVKVSCKASGYTFTGSYMHWVRQAPGQGLEWMGWINPNSGGTNYAQKFQGRVTLTRDTSISTAYMELTRLRSDDTTVFYCATSRSGDWYFDLWGRGTLVTVSS
VL: B12 VL with V29A, T30S, K39Q, V86M, F94T
B14: G001_gp1_V08_VRC01c_131 (antibody, V domains shown)
VH: QVQLVQSGAEVKKPGASVKVSCKASGYTFTDYYIYWLRQAPGHGLEWMGWINPNSGGTNYAQKFQDWVTMTRDTSISTAYMELSRLSSDDTAVYYCARRNDYLGGSYRYSAFDIWGQGTMVTVSS
VL: B12 VL with S28K, T30S, S32R, K39Q, F94T
B15: G001_gp1_V08_VRC01c_134 (antibody, V domains shown)
VH: B12 VH with I30T, Q63K, R87T, V101K, A103T, G104N, S105Y, Y106N, Y108N
VL: EIVLTQSPGTLSLSPGERATLSCRASQSVTSNLAWYQQKPGQAPRLLIYGASSRATGIPDRFSGSGSGTDFTLTISRLEPEDFAVYYCQQYESFGQGTKLEIK
B16: G001_gp1_V08_VRC01c_158 (antibody, V domains shown)
VH: QVQLVQSGAEVKKPGASVKVSCKASGYTFTDYYMHWVRQAPGQGLEWMGWLNPNSGGTNYAQKFQDWVTMTRDTSIRTAYLELSRLKLDDTAIYYCARRIDYLDAFDIWGQGTMVTVSS
VL: B12 VL with T30S, S31R, S32R, K39Q, P41T, F94M, L101V
B17: G001_gp1_V08_VRC01c_133 (antibody, V domains shown)
VH: QVQLVQSGAEVKKPGASVKVSCKASGYTFTDYYLHWVRQAPGQGLEWMGWINPNSGGTNYARKFQDWVTMTRDTSISTAYMELSRLRSDDTAVYYCARGKTTVSWYFEYWAQGTLVTVSS
VL: B12 VL with T30S, K39Q, F84S, F94T, L101V
B18: G001_gp1_V08_VRC01c_145 (antibody, V domains shown)
VH: QVQLVQSGAEVKKPGASVKVSCRASGYTFTAYYIHWVRQAPGQGLEWMGWINPNSGGTNYAQKFQGRVTMTRDTSISTAYMELRRLRSDDTAVYYCARRFVSSGYYYAYWGQGTLVTVSS
VL: B12 VL with T30S, K39Q, I49F, V86I, Q91H, F94T, L101V
B19: G001_gp1_V08_VRC01c_130 (antibody, V domains shown)
VH: QVQLVQSGAEVKKPGASVKVSCKASGYTFTGYYMHWVRQAPGQGLEWLGWINPNSGGTNYAQKFQGWVTMTRDTSISTAYMELSRLRSDDTAVYYCATVAGYSSSWQRGWAFDIWGQGTMVTVSS
VL: B12 VL with R18G, T30S, Y33S, K39Q, Q91L, F94T, L101V
B20: G001_gp1_V08_VRC01c_126 (antibody, V domains shown)
VH: QVQLVQSGAEVKKPGASVKVSCKASGYTFTGYYMHWVRQAPGQGLEWMGWINPNSGGTNYAQKFQDWVTMTRDTSISTAYMELNRLRSDDAAIYYCARADIVATIWALDYWGQGTLVTVSS
VL: DIQMTQSPSSLSASVGDRVTITCQASQDISTYLNWYQQKPGKAPKLLIYDASNLETGVPSRFSGSGSGTDFTFTISSLQPEDSATYYCQQYGTFGQGTKVEIK
B21: G001_gp1_V08_VRC01c_135 (antibody, V domains shown)
VH: QVQLVQSGAEVKKPGASVKVSCKASGYIFTGYYMHWVRQAPGQGLEWMGWINPNSGGTNYAQKFQGWVTMTRDTSISTAYMELSRLRSDDTAVYYCASSVGVPAARGWAFDMWGQGTMVTVSS
VL: B20 VL with T31N, N53D, S83I, G92D, T93L, Q96P, E101D
B22: G001_gp1_V08_VRC01c_144 (antibody, V domains shown)
VH: QVQLVQSGAEVKKPGASVKVSCKASGYTFSGHYMHWVRQAPGQGLEWMGWINPNSGGTNYAQKFQGRVTMTRDTSISSAYMELSRLRSDDTAVYYCATHTGSGSSWSFDSWGQGTLVTVSS
VL: B20 VL with T31N, S83I, G92E, T93Y, K99R, V100L
B23: G001_gp1_V08_VRC01c_147 (antibody, V domains shown)
VH: QVQLVQSGAEVKQPGASVKVSCKASGYTFTGYYIHWIRQAPGQGLEWMGWINPKSGGTNYARNFQGRVTMTRDTSISTSYLLLSRLRSDDTAVYYCFRGAEGWLLKYWGQGTLVTVSS
VL: B20 VL with T31N, S83I, Y87F, Q90H, G92E, T93F, Q96P, E101D
B24: G001_gp1_V08_VRC01c_132 (antibody, V domains shown)
VH: QVQLVQSGAEVKKPGASVKVSCKASGYTFSGYYMHWVRQAPGQGLEWMGWINPNSGGTNYAQKFQGWVTMTRDTSISTAYMELSRLKSDDTAVYYCARVEHTSGWCFDSWGQGTLVTVSS
VL: B20 VL with T31N, Y49S, S83I, G92D, T93I, Q96P

These binders were tested against eOD-GT8 (engineered outer domain germline-targeting version 8), monomer (HIV-1 gp120 engineered outer domain, …).

Binder | binding result
B1 | binds
B2 | binds
B3 | binds
B4 | binds
B5 | binds
B6 | binds
B7 | binds
B8 | binds
B9 | binds
B10 | binds
B11 | binds
B12 | binds
B13 | binds
B14 | binds
B15 | binds
B16 | binds
B17 | binds
B18 | binds
B19 | binds
B20 | binds
B21 | binds
B22 | binds
B23 | binds
B24 | binds
